Test results reported in patent US8501695B2, “Tissue kallikrein for the treatment of diseases associated with amyloid protein” (DiaMedica, Inc., priority 2007, dated 2013).

Legend:
[1] = system: rat mixed cortical cultures (RMCC); experiment: Aβ1-42 toxicity in rat mixed cortical cultures, LDH measurement; assay type: cell-based
Method: Whether pre-treatment with tissue kallikrein protects rat mixed cortical cultures against exposure to human amyloid beta peptide (Aβ1-42) was investigated. Cell death was analyzed by LDH-release, an indication of necrosis, and cell viability was also analyzed by neuronal cell count. First (Study Arm A), tissue kallikrein was added to the cells only prior to the Aβ1-42 insult (at −24 h and at −30 min). Whereas in the second part (Study Arm B), tissue kallikrein was added to the cells prior to (−30 min) and also at +24 h after the Aβ1-42 insult. At the +24 h time point, cell culture media were not changed (tissue kallikrein or corresponding amount of vehicle was added to the wells), whereas at −24 h and −30 min time point cell culture media were changed.
[…] Cell Culture. Mixed cortical cultures were prepared from E18 Wistar rat embryos (National Animal Center, Kuopio, Finland). The cortices were dissected out, and the tissue cut to small pieces. The cells were separated by 15-min incubation with DNase and papain. The cells were collected by centrifugation (1500 rpm, 5 min). The tissue was triturated with a pipette and the cells were plated on poly-L-lysine-coated 48-well plates, 300,000 cells/cm^2, in MEM (2 g/L glucose) supplemented with 2 mM glutamine, 0.1 μg/ml gentamicin, 10% heat-inactivated fetal bovine serum (FBS-HI) and 10% heat-inactivated horse serum (HS-HI). After 3-4 h, the media were changed to MEM (2 g/L glucose) supplemented with 2 mM glutamine, 0.1 μg/ml gentamicin, 5% HS-HI. After three days in vitro, media containing MEM (2 g/L glucose) supplemented with glutamine, gentamicin, and 5% of both sera were changed to the cells. On day 6 in vitro, the unwanted cell division was inhibited by adding cytosine arabinoside (10 μM final concentration) for 24 h. The cultures were refed with MEM (2 g/L glucose) supplemented with glutamine, gentamicin, and 5% HS-HI before experiments.
Aβ1-42 Exposure. Tissue kallikrein (SEQ ID NO:1) was dissolved and further diluted in MEM supplemented with glucose, glutamine, gentamicin, and 5% HS-HI. As a control for total neuronal death, 300 μM N-methyl-D-aspartic acid (NMDA) for 48 h was used, and 10 μM Aβ1-42 for 48 h was used to induce approximately 30-50% cell death. Wells treated with media only served as 0-control. Tissue kallikrein or vehicle was pipetted to the cells −24 h and −30 min before adding 10 μM Aβ1-42 (final concentration). Tissue kallikrein or vehicle was again pipetted to the cells at +24 h after exposure.
LDH Measurement. After 48 h, the culture media of all wells were collected, and possible cell debris was removed by centrifugation (13,000 rpm for 3 min). A 100 μl aliquot was pipetted into a microtiter plate as duplicates, and equal amount of LDH reagent was pipetted to the wells. The absorbance at 340 nm was measured immediately using a 3 min kinetic measurement protocol in Multiskan ELISA reader (Labsystems, Finland). The change in absorbance/min was determined, which was directly proportional to the released LDH. The remaining supernatant (50 μl) was snap-frozen in dry ice for storage.
Data Analysis. The number of wells per compound concentration used was 6 (n=6). Five concentrations of Tissue kallikrein were studied (0.001, 0.01, 0.1, 1, 10 μg/ml) in both study arms. Statistical analysis was performed using StatsDirect statistical software. The values were analyzed by one-way ANOVA followed by Dunnet's test (comparison to the vehicle-treated group). Results are presented as mean±standard deviation (SD) and differences are considered to be statistically significant at the P<0.05 level.

[2] = biological target: T1, Amyloid beta1-42 (hAPβ42 peptide) (Homo sapiens, UniProt P05067); experiment: Direct cleavage of amyloid beta, β-Amyloid1-42 ELISA; assay type: biochemical
T1 construct: Amyloid beta1-42 standard (from β-Amyloid1-42 ELISA, Human kit, Sigma BE0200); purchased Sigma BE0200
T1 sequence (P05067 672-713 limits assumed): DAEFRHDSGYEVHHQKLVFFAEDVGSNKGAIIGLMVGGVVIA
Method: Amyloid beta1-42 standard (from β-Amyloid1-42 ELISA, Human kit, Sigma BE0200) was reconstituted into 1.0 μg/mL as per kit instructions. A stock solution of tissue kallikrein (SEQ ID: 1) and approximately 0.5 molar equivalents of Soybean Trypsin Inhibitor (Sigma, T6522) was prepared in PBS and serially diluted in triplicate with a fixed concentration of hAPβ42 peptide at 500 pg/mL. Solutions were incubated for 3 and 18 hours respectively after which time additional protease inhibitors were added (1/100 dilution of protease inhibitor cocktail solution, Sigma P8340). As per kit instructions, 50 μL of the above samples were added and the ELISA plate incubated overnight at 4° C. The remaining steps of the ELISA plate development were followed as per kit instructions and then read using a multiwell ELISA plate reader at 450 nm. Percent cleavage was determined by: 100−[(Ave KLK1−Ave Blank)/(Ave Control−Ave Blank)×100]=% Cleavage Results

B1: tissue kallikrein: serine protease that cleaves kininogen into kallidin; polypeptide SEQ ID NO:1 (Sus scrofa kallikrein 1), KLK1 from Sigma (protein, listed as Sus scrofa)
chain: MWSLVMRLALSLAGTGAAPPIQSRIIGGRECEKDSHPWQVAIYHYSSFQCGGVLVDPKWVLTAAHCKNDNYQVWLGRHNLFENEVTAQFFGVTADFPHPGFNLSLLKNHTKADGKDYSHDLMLLRLQSPAKITDAVKVLELPTQEPELGSTCQASGWGSIEPGPDDFEFPDEIQCVELTLLQNTFCADAHPDKVTESMLCAGYLPGGKDTCMGDSGGPLICNGMWQGITSWGHTPCGSANKPSIYTKLIFYLDWINDTITENP
modifications: 125I label in one form
LDH release following Aβ1-42 insult ([1]; 10 μg/ml, Study Arms A, B and C (all three treatment arms), FIG. 7): statistically significant reduction of LDH release
LDH release following Aβ1-42 insult ([1]; Study Arm A (-24 h and -30 min), 10 μg/ml, 10 μM Aβ1-42): significantly reduced LDH release
LDH release following Aβ1-42 insult ([1]; Study Arm A (-24 h and -30 min), 0.001, 0.01, 0.1 and 1.0 μg/ml, 10 μM Aβ1-42): did not alter LDH release
LDH release following Aβ1-42 insult ([1]; Study Arm B (-30 min and +24 h), 1.0 μg/ml): reduced LDH release
LDH release following Aβ1-42 insult ([1]; Study Arm B (-30 min and +24 h), 10 μg/ml): statistically significant reduction of LDH release
LDH release following Aβ1-42 insult ([1]; Study Arm B (-30 min and +24 h), 0.001, 0.01 and 0.1 μg/ml, 10 μM Aβ1-42): did not alter LDH release
Percent Cleavage of Amyloid Beta ([2]; KLK1 1 pg/mL, 3 hrs): 0%
Percent Cleavage of Amyloid Beta ([2]; KLK1 1 pg/mL, 18 hrs): 0%
Percent Cleavage of Amyloid Beta ([2]; KLK1 10 pg/mL, 3 hrs): 0%
Percent Cleavage of Amyloid Beta ([2]; KLK1 10 pg/mL, 18 hrs): 15%
Percent Cleavage of Amyloid Beta ([2]; KLK1 100 pg/mL, 3 hrs): 0%
Percent Cleavage of Amyloid Beta ([2]; KLK1 100 pg/mL, 18 hrs): 19.5%
Percent Cleavage of Amyloid Beta ([2]; KLK1 1 ng/mL, 3 hrs): 19.6%
Percent Cleavage of Amyloid Beta ([2]; KLK1 1 ng/mL, 18 hrs): 50%
Percent Cleavage of Amyloid Beta ([2]; KLK1 10 ng/mL, 3 hrs): 36.6%
Percent Cleavage of Amyloid Beta ([2]; KLK1 10 ng/mL, 18 hrs): 88.4%
Percent Cleavage of Amyloid Beta ([2]; KLK1 100 ng/mL, 3 hrs): 71.7%
Percent Cleavage of Amyloid Beta ([2]; KLK1 100 ng/mL, 18 hrs): 99.8%
Percent Cleavage of Amyloid Beta ([2]; KLK1 1 μg/mL, 3 hrs): 92.1%
Percent Cleavage of Amyloid Beta ([2]; KLK1 1 μg/mL, 18 hrs): 100%
